Drawing on US20260374897 (published 2026), this text covers Kd and EC50 for two molecules.

The target in one experiment is human FAP ECD (human, UniProt Q12884). In words: SPR. A general note: In SPR one partner is held on a chip, and binding of the other changes the refractive index at the surface.
A further experiment addresses human FAP (cell surface) (human, UniProt Q12884). The experiment in a line: FACS. (In general: Flow cytometry measures light scatter and fluorescence of single cells or particles in a stream.)
The target in the next experiment is T1, mouse FAP (cell surface) (mouse, UniProt P97321).
T1 chain: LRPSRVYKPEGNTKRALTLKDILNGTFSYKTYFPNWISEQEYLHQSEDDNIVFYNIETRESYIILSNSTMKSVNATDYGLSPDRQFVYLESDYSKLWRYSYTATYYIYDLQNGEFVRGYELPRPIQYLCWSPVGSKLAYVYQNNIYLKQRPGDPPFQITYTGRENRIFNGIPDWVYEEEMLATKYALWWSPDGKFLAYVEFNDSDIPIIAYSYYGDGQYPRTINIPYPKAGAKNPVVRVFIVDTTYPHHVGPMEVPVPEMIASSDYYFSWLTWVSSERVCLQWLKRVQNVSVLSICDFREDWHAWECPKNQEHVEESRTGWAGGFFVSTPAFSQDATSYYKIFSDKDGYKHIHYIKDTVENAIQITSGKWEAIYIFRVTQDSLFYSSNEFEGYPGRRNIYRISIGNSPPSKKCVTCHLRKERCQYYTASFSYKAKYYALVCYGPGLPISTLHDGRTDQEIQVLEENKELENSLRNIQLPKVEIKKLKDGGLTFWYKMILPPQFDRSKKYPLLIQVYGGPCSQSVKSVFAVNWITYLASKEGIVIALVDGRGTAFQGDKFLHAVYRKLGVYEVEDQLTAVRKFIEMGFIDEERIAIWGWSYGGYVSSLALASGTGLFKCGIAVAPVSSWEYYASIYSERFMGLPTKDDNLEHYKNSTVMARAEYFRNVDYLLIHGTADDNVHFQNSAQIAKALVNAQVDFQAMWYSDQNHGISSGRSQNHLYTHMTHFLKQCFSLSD
In words: FACS.

Sequence of human FAP ECD (Q12884 26-760): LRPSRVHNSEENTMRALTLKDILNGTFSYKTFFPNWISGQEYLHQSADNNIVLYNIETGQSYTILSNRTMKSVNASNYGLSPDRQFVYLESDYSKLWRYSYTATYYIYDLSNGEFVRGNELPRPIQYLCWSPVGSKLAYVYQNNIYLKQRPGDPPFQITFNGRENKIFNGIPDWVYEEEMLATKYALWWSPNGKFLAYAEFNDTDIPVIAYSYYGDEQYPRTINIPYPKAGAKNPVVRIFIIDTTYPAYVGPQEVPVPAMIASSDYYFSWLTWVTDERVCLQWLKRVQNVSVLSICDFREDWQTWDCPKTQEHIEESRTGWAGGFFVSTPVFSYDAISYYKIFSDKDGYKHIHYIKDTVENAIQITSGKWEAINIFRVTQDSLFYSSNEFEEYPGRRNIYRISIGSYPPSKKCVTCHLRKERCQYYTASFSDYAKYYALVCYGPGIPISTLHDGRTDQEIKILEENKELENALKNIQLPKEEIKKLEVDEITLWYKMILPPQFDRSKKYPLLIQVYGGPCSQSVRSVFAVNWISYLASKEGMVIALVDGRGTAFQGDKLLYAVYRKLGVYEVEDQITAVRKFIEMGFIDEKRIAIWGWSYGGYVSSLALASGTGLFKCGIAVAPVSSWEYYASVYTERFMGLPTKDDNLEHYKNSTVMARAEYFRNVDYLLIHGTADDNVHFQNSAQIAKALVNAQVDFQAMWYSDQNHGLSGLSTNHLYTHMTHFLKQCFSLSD
Sequence of human FAP (cell surface) (Q12884 26-760): as above

B1: Ab10-A297V3-2 FAP arm (antibody, V domains shown)
VH: QVQLQQSGVEVKKPGASVTVSCRASGYSFADHFIHWVRQAPGQGFQWMGWINPNRGVTHHAQDFQGRVAMTRDMSTDTVYMELTSLRSDDTAVYYCARDASLTARPYYFYGFDVWGQGTLVTVSS
VL: DIQMTQSPSSVSASVGDRVTITCRASQGISSWLAWYQQKPGKAPKLLIYAASSLQSGVPSRFSGSGSGTDFTLTISSLQPEDFATYYCQQANSFPPAFGQGTKVEIK
As to B1, the affinity with human FAP ECD, expressed as Kd, was 0.405 nM. The 50% effective concentration (EC50) was 2.51 nM with human FAP (cell surface) and 0.79 nM in the experiment with mouse FAP (cell surface).

B2: Ab10-A297V3-4 FAP arm (antibody, V domains shown)
VH: B1 VH
VL: B1 VL
The molecule B2 yielded a Kd in the experiment with human FAP ECD of 0.378 nM. In addition, the values for the EC50 with human FAP (cell surface) and with mouse FAP (cell surface) were 1.57 nM and 1.65 nM, respectively.

As usually defined, the Kd is the equilibrium constant for the complex coming apart. High values mean lower affinity, low ones higher affinity. As a reminder, the EC50 is the concentration that produces a half-maximal response.
